Values joined by “and” are separate entries in the source; they are usually repeats but may differ in a detail not shown here. Equal values may be shown once. Read-outs that look alike come from different tables or passages of the source. Each block holds one substance with its values, some of them ahead of it.
Key:
[1] = biological target: T1, rat hypothalamic Y5 receptor (rat); test: 125I-PYY displacement, COS-7 membranes
T1 sequence: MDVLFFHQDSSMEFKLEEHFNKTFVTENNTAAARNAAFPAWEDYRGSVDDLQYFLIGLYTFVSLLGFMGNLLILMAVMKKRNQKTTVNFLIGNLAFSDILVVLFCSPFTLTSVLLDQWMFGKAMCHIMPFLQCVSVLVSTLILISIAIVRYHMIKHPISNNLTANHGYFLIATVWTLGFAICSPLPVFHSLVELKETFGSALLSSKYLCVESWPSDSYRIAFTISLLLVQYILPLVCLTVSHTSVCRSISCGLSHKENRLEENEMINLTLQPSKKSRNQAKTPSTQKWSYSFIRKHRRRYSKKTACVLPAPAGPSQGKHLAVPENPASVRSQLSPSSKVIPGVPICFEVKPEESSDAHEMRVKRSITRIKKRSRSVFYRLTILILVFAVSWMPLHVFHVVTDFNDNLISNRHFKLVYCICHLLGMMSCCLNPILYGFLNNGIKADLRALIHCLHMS

rat Y2 receptor (rat) [2] = biological target: rat Y2 receptor (rat) (UniProt Q9ERC0); test: 125I-PYY displacement, COS-7 membranes
rat Y1 receptor (rat) [3] = biological target: rat Y1 receptor (rat) (UniProt P21555); test: 125I-PYY displacement, COS-7 membranes
rat Y4 receptor (rat) [4] = biological target: rat Y4 receptor (rat) (UniProt Q63447); test: 125I-PYY displacement, COS-7 membranes
[5] = biological target: membranes from rat hypothalamus; test: 125I-PYY displacement, rat hypothalamic membranes
[6] = biological target: T1, rat hypothalamic Y5 receptor (rat)
[7] = biological target: human hippocampal Y5 receptor (human)
[8] = biological target: human hippocampal Y5 receptor (human); test: 125I-PYY displacement, COS-7 membranes
[9] = biological target: human hippocampal Y5 receptor (human); test: 125I-PYY displacement
[10] = biological target: T1, rat hypothalamic Y5 receptor (rat); remark: listed apart in the source
[11] = biological target: human Y1 receptor (human) (UniProt P25929); test: 125I-PYY displacement, COS-7 membranes
rat Y1 receptor (rat) [12] = biological target: rat Y1 receptor (rat) (UniProt P21555); test: 125I-PYY displacement, COS-7 membranes; remark: listed apart in the source
[13] = biological target: human Y2 receptor (human) (UniProt P49146); test: 125I-PYY displacement, COS-7 membranes
rat Y4 receptor (rat) [14] = biological target: rat Y4 receptor (rat) (UniProt Q63447); test: 125I-PYY displacement, COS-7 membranes; remark: listed apart in the source
rat Y2 receptor (rat) [15] = biological target: rat Y2 receptor (rat) (UniProt Q9ERC0); test: 125I-PYY displacement, COS-7 membranes; remark: listed apart in the source
[16] = biological target: T1, rat hypothalamic Y5 receptor (rat); test: 125I-PYY displacement, COS-7 membranes; remark: listed apart in the source
[17] = biological target: human Y1 receptor (human) (UniProt P25929); test: 125I-PYY displacement, COS-7 membranes; remark: listed apart in the source
[18] = biological target: human Y2 receptor (human) (UniProt P49146); test: 125I-PYY displacement, COS-7 membranes; remark: listed apart in the source
rat Y4 receptor (rat) [19] = biological target: rat Y4 receptor (rat) (UniProt Q63447); test: 125I-PYY displacement, COS-7 membranes; remark: listed apart in the source
rat Y2 receptor (rat) [20] = biological target: rat Y2 receptor (rat) (UniProt Q9ERC0); test: 125I-PYY displacement, COS-7 membranes; remark: listed apart in the source
[21] = biological target: human hippocampal Y5 receptor (human); test: 125I-PYY displacement, LM(tk-) membranes
[22] = biological target: human hippocampal Y5 receptor (human); test: 125I-PYY3-36 displacement, LM(tk-) membranes
[23] = biological target: membranes from rat hypothalamus; test: 125I-PYY displacement, rat hypothalamic membranes; high-affinity part of a two-part curve
[24] = biological target: T1, rat hypothalamic Y5 receptor (rat); test: 125I-PYY displacement, COS-7 membranes; remark: listed apart in the source
[25] = biological target: human Y4 receptor (human) (UniProt P50391); test: 125I-PYY displacement, COS-7 membranes
[26] = biological target: T1, rat hypothalamic Y5 receptor (rat); test: time course, 0.08 nM radioligand, room temperature, 10 mM Na+
[27] = biological target: T1, rat hypothalamic Y5 receptor (rat); test: time course, 0.08 nM radioligand, room temperature, 138 mM Na+
[28] = biological target: T1, rat hypothalamic Y5 receptor (rat); test: saturation binding, isotonic buffer, room temperature, COS-7 membranes
[29] = biological target: human hippocampal Y5 receptor (human); remark: listed apart in the source
[30] = biological target: human hippocampal Y5 receptor (human); remark: listed apart in the source
[31] = biological target: human hippocampal Y5 receptor (human); test: 125I-PYY displacement, COS-7 membranes; remark: listed apart in the source

Chain of rat Y4 receptor (rat) (Q63447 whole entry): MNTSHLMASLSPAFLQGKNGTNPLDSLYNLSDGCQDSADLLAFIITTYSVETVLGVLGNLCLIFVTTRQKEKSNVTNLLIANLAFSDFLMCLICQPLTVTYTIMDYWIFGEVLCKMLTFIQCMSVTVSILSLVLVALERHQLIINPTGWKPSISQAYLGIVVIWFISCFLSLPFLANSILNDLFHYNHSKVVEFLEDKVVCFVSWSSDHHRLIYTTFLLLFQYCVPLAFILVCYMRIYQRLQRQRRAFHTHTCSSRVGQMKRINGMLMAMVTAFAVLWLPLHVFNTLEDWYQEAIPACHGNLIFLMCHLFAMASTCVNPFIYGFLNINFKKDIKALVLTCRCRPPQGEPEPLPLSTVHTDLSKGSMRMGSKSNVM

- Ki [1]: 8700 nM
Substance: W(nor-L)RF-amide (peptide)

- Ki (rat Y2 receptor (rat) [2]): > 1000 nM
Substance: avian PP (peptide)

- Ki [1]: 0.71 nM
- Ki (rat Y1 receptor (rat) [3]): 0.09 nM
- Ki (rat Y2 receptor (rat) [2]): 0.65 nM
Substance: frog NPY (melanostatin) (peptide)

- Ki [1]: > 550 nM
- Ki (rat Y1 receptor (rat) [3]): 720 nM
- Ki (rat Y4 receptor (rat) [4]): > 1000 nM
- Ki (rat Y2 receptor (rat) [2]): > 980 nM
Substance: frog PP (rana temporaria) (peptide)

- IC50 [5]: 2.3 nM
- inhibition of forskolin-stimulated cAMP accumulation, EC50 [6]: 2 nM
- maximum inhibition of forskolin-stimulated cAMP accumulation (Emax) [6]: 84%
Substance: human NPY2-36 (from UniProt P01303) (peptide)

- Ki (rat Y4 receptor (rat) [4]): 5 nM
Substance: human NPY2-36, P01303 (peptide; other documents disagree on this pair)

- Ki (rat Y4 receptor (rat) [4]): > 1000 nM
Substance: human NPY free acid, P01303 (peptide; free carboxylic acid at the carboxy terminus instead of the amide; other documents disagree on this pair)

- inhibition of forskolin-stimulated cAMP accumulation, EC50 [7]: 2 nM
Substance: human PP2-36 (from UniProt P01298) (peptide)

- % inhibition of cAMP accumulation relative to human NPY [7]: 96%
- inhibition of forskolin-stimulated cAMP accumulation, EC50 [7]: 14 nM
Substance: human PP (from UniProt P01298) (peptide)

- inhibition of forskolin-stimulated cAMP accumulation, EC50 [7]: 18 nM
- inhibition of forskolin-stimulated cAMP accumulation, EC50 [6]: 4.9 nM
Substance: human PYY3-36 (from UniProt P10082) (peptide)

- % inhibition of cAMP accumulation relative to human NPY [7]: 111%
- inhibition of forskolin-stimulated cAMP accumulation, EC50 [7]: 4.9 nM
- IC50 [5]: 1.3 nM
Substance: human PYY (from UniProt P10082) (peptide)

- inhibition of forskolin-stimulated cAMP accumulation, EC50 [7]: 26 nM
- Ki [8]: 35 nM
- Ki [9]: 18 nM
- inhibition of forskolin-stimulated cAMP accumulation, EC50 [10]: 7.5 nM and 25 nm
- Ki [11]: > 500 nM
- Ki (rat Y1 receptor (rat) [12]): > 500 nM
- Ki [13]: > 500 nM
- Ki (rat Y4 receptor (rat) [14]): > 500 nM
- Ki (rat Y2 receptor (rat) [15]): > 500 nM
- Ki [16]: 53 nM
- Ki [17]: > 1000 nM
- Ki [18]: > 1000 nM
- Ki (rat Y4 receptor (rat) [19]): > 1000 nM
- Ki (rat Y2 receptor (rat) [20]): > 1000 nM
- Ki [1]: 35 nM
- Ki (rat Y1 receptor (rat) [3]): > 1000 nM
- Ki (rat Y4 receptor (rat) [4]): > 630 nM
- Ki (rat Y2 receptor (rat) [2]): 760 nM
- Ki [21]: 16 nM
- Ki [22]: 10 nM
- inhibition of forskolin-stimulated cAMP accumulation, EC50 [6]: 9.5 nM
- maximum inhibition of forskolin-stimulated cAMP accumulation (Emax) [6]: 72%
Substance: human [D-Trp^32]NPY (from UniProt P01303) (peptide)

- inhibition of forskolin-stimulated cAMP accumulation, EC50 [7]: 5.6 nM
- Ki [8]: 2 nM
Substance: human [Ile^31, Gln^34]PP (from UniProt P01298) (peptide)

- IC50 [23]: 0.21 nM
- inhibition of forskolin-stimulated cAMP accumulation, EC50 [7]: 3 nM
- Ki [18]: > 130 nM
- Ki [1]: 1 nM
- Ki (rat Y1 receptor (rat) [3]): 0.1 nM
- Ki (rat Y4 receptor (rat) [4]): 0.59 nM
- Ki (rat Y2 receptor (rat) [2]): > 1000 nM
- inhibition of forskolin-stimulated cAMP accumulation, EC50 [6]: 0.6 nM
- maximum inhibition of forskolin-stimulated cAMP accumulation (Emax) [6]: 70%
Substance: human [Leu^31, Pro^34]NPY (from UniProt P01303) (peptide)

- Ki [24]: 260 nM
- Ki [8]: 370 nM
- Ki [16]: 470 nM
- Ki [17]: 79 nM
- Ki [25]: 120 nM
- Ki [18]: 3.5 nM
- Ki [1]: > 260 nM
- Ki (rat Y1 receptor (rat) [3]): 140 nM
- Ki (rat Y4 receptor (rat) [4]): 22 nM
- Ki (rat Y2 receptor (rat) [2]): 2.6 nM
- Ki [21]: 260 nM
- Ki [22]: 220 nM
- inhibition of forskolin-stimulated cAMP accumulation, EC50 [6]: 240 nM
Substance: porcine C2-NPY (peptide)

- Ki (rat Y4 receptor (rat) [4]): 36 nM
Substance: porcine NPY3-36, P01304 (peptide; other documents disagree on this pair)

- Ki (rat Y1 receptor (rat) [3]): 0.25 nM
- Ki (rat Y4 receptor (rat) [4]): 0.32 nM
- Ki (rat Y2 receptor (rat) [2]): 840 nM
Substance: porcine [Leu^31, Pro^34]NPY (from UniProt P01304) (peptide)

- maximal specific binding [26]: 480 fmol/mg
- observed association rate (Kobs) [26]: 0.042 min⁻¹
- t1/2 of association [26]: 17 min
- maximal specific binding [27]: 330 fmol/mg
- observed association rate (Kobs) [27]: 0.029 min⁻¹
- t1/2 of association [27]: 24 min
- Kd [28]: 0.072 nM
- pKd [28]: 10.1
Substance: porcine ^125I-[Leu^31, Pro^34]PYY (from UniProt P68005) (peptide)

- inhibition of forskolin-stimulated cAMP accumulation, EC50 [7]: 2.7 nM
- IC50 [5]: 0.82 nM
- intracellular free calcium concentration (Fura-2) [29]: 34 nM
- inhibition of forskolin-stimulated cAMP, EC50, LM(tk-) cells [30]: 2.4 nM
- inhibition of forskolin-stimulated cAMP, EC50, NIH-3T3 cells [30]: 8.5 nM
- maximum inhibition of forskolin-stimulated cAMP (Emax), LM(tk-) cells [30]: 72%
- maximum inhibition of forskolin-stimulated cAMP (Emax), NIH-3T3 cells [30]: 42%
- inhibition of forskolin-stimulated cAMP accumulation, EC50 [6]: 1.8 nM
- maximum inhibition of forskolin-stimulated cAMP accumulation (Emax) [6]: 67%
Substance: rat/human NPY (from UniProt P01303) (peptide)

- Ki (rat Y4 receptor (rat) [4]): 1.7 nM
Substance: rat/human NPY, P01303 (peptide; carboxy terminal amide; other documents disagree on this pair)

- % inhibition of cAMP accumulation relative to human NPY [7]: 96%
- inhibition of forskolin-stimulated cAMP accumulation, EC50 [7]: 4.5 nM
- Ki [8]: 0.27 nM
- Ki [16]: 0.31 nM
- Ki [17]: 0.11 nM
- Ki [31]: 0.46 nM
- Ki [25]: 3.2 nM
- Ki [18]: 0.17 nM
- Ki [1]: 0.33 nM
- Ki (rat Y1 receptor (rat) [3]): 0.3 nM
- Ki (rat Y4 receptor (rat) [4]): 3 nM
- Ki (rat Y2 receptor (rat) [2]): 0.16 nM
- Ki [22]: 0.63 nM
- inhibition of forskolin-stimulated cAMP accumulation, EC50 [6]: 0.92 nM
Substance: salmon PP (peptide)

From patent US20020103123A1
